Measured values from patent US20120135923A1 (IPSEN PHARMA S A S, published 2012).
Bridge positions count the residues as written; N and C are the ends. Square brackets hold non-standard residues; d marks the D form. 1Nal = N[C@@H](Cc1cccc2ccccc12)C(=O)O; 2Nal = N[C@@H](Cc1ccc2ccccc2c1)C(=O)O; d2Nal = N[C@H](Cc1ccc2ccccc2c1)C(=O)O; Bta = N[C@@H](Cc1csc2ccccc12)C(=O)O; βAla = NCCC(=O)O

B1: Ac-c(Cys-Glu-His-D-2-Nal-Arg-1-Nal-Ala-Cys)-Pro-Pro-Lys-Asp-β-[…]NH2 (peptide)
peptide: Ac-CEH[d2Nal]R[1Nal]ACPPKD[βAla]GRRKRRQRRR-NH2
modifications: disulfide 1-8
SMILES: CC(=O)N[C@H]1CSSC[C@@H](C(=O)N2CCC[C@H]2C(=O)N2CCC[C@H]2C(=O)N[C@@H](CCCCN)C(=O)N[C@@H](CC(=O)O)C(=O)NCCC(=O)NCC(=O)N[C@@H](CCCNC(=N)N)C(=O)N[C@@H](CCCNC(=N)N)C(=O)N[C@@H](CCCCN)C(=O)N[C@@H](CCCNC(=N)N)C(=O)N[C@@H](CCCNC(=N)N)C(=O)N[C@@H](CCC(N)=O)C(=O)N[C@@H](CCCNC(=N)N)C(=O)N[C@@H](CCCNC(=N)N)C(=O)N[C@@H](CCCNC(=N)N)C(N)=O)NC(=O)[C@H](C)NC(=O)[C@H](Cc2cccc3ccccc23)NC(=O)[C@H](CCCNC(=N)N)NC(=O)[C@@H](Cc2ccc3ccccc3c2)NC(=O)[C@H](Cc2c[nH]cn2)NC(=O)[C@H](CCC(=O)O)NC1=O
B2: Ac-c(Cys-Glu-His-D-2-Nal-Arg-1-Nal-Ala-Cys)-Pro-Pro-Lys-Asp-β-[…]NH2 (peptide)
peptide: Ac-CEH[d2Nal]R[1Nal]ACPPKD[βAla]GRKRRRQRRR-NH2
modifications: disulfide 1-8
SMILES: CC(=O)N[C@H]1CSSC[C@@H](C(=O)N2CCC[C@H]2C(=O)N2CCC[C@H]2C(=O)N[C@@H](CCCCN)C(=O)N[C@@H](CC(=O)O)C(=O)NCCC(=O)NCC(=O)N[C@@H](CCCNC(=N)N)C(=O)N[C@@H](CCCCN)C(=O)N[C@@H](CCCNC(=N)N)C(=O)N[C@@H](CCCNC(=N)N)C(=O)N[C@@H](CCCNC(=N)N)C(=O)N[C@@H](CCC(N)=O)C(=O)N[C@@H](CCCNC(=N)N)C(=O)N[C@@H](CCCNC(=N)N)C(=O)N[C@@H](CCCNC(=N)N)C(N)=O)NC(=O)[C@H](C)NC(=O)[C@H](Cc2cccc3ccccc23)NC(=O)[C@H](CCCNC(=N)N)NC(=O)[C@@H](Cc2ccc3ccccc3c2)NC(=O)[C@H](Cc2c[nH]cn2)NC(=O)[C@H](CCC(=O)O)NC1=O
B3: Ac-c(Cys-Glu-His-D-2-Nal-Arg-2-Nal-Ala-Cys)-Pro-Pro-Lys-Asp-β-[…]NH2 (peptide)
peptide: Ac-CEH[d2Nal]R[2Nal]ACPPKD[βAla]GRRKRRQRRR-NH2
modifications: disulfide 1-8
SMILES: CC(=O)N[C@H]1CSSC[C@@H](C(=O)N2CCC[C@H]2C(=O)N2CCC[C@H]2C(=O)N[C@@H](CCCCN)C(=O)N[C@@H](CC(=O)O)C(=O)NCCC(=O)NCC(=O)N[C@@H](CCCNC(=N)N)C(=O)N[C@@H](CCCNC(=N)N)C(=O)N[C@@H](CCCCN)C(=O)N[C@@H](CCCNC(=N)N)C(=O)N[C@@H](CCCNC(=N)N)C(=O)N[C@@H](CCC(N)=O)C(=O)N[C@@H](CCCNC(=N)N)C(=O)N[C@@H](CCCNC(=N)N)C(=O)N[C@@H](CCCNC(=N)N)C(N)=O)NC(=O)[C@H](C)NC(=O)[C@H](Cc2ccc3ccccc3c2)NC(=O)[C@H](CCCNC(=N)N)NC(=O)[C@@H](Cc2ccc3ccccc3c2)NC(=O)[C@H](Cc2c[nH]cn2)NC(=O)[C@H](CCC(=O)O)NC1=O
B4: Ac-c(Cys-Glu-His-D-2-Nal-Arg-Bal-Ala-Cys)-Pro-Pro-Arg-Asp-β-[…]NH2 (peptide)
peptide: Ac-CEH[d2Nal]R[Bta]ACPPRD[βAla]RRRRRRQRRR-NH2
modifications: disulfide 1-8
SMILES: CC(=O)N[C@H]1CSSC[C@@H](C(=O)N2CCC[C@H]2C(=O)N2CCC[C@H]2C(=O)N[C@@H](CCCNC(=N)N)C(=O)N[C@@H](CC(=O)O)C(=O)NCCC(=O)N[C@@H](CCCNC(=N)N)C(=O)N[C@@H](CCCNC(=N)N)C(=O)N[C@@H](CCCNC(=N)N)C(=O)N[C@@H](CCCNC(=N)N)C(=O)N[C@@H](CCCNC(=N)N)C(=O)N[C@@H](CCCNC(=N)N)C(=O)N[C@@H](CCC(N)=O)C(=O)N[C@@H](CCCNC(=N)N)C(=O)N[C@@H](CCCNC(=N)N)C(=O)N[C@@H](CCCNC(=N)N)C(N)=O)NC(=O)[C@H](C)NC(=O)[C@H](Cc2csc3ccccc23)NC(=O)[C@H](CCCNC(=N)N)NC(=O)[C@@H](Cc2ccc3ccccc3c2)NC(=O)[C@H](Cc2c[nH]cn2)NC(=O)[C@H](CCC(=O)O)NC1=O

What follows are binders tested against T1, human melanocortin receptor subtype 4 (hMC4-R) (human, UniProt P32245 1-332) (assay: [125I]-NDP-α-MSH competition, membranes).
T1 construct: whole, on cells; membranes of CHO-K1 cells
T1 sequence (P32245 whole entry): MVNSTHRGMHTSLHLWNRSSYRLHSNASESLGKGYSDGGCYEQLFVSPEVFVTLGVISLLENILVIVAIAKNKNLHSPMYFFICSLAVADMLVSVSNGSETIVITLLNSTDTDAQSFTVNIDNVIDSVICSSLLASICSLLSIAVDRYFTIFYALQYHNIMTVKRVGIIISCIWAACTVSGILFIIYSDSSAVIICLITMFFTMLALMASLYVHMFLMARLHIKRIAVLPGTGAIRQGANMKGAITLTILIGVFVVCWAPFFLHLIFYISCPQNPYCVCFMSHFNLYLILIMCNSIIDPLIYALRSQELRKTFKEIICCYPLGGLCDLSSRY

Row | Binder | Ki
1 | B1 | 0.305 nM
2 | B2 | 0.243 nM
3 | B3 | 0.202 nM
4 | B4 | 0.659 nM

What follows are binders tested against T2, human melanocortin receptor subtype 3 (hMC3-R) (human, UniProt P41968 1-323) (assay: [125I]-NDP-α-MSH competition, membranes).
T2 construct: whole, on cells; membranes of CHO-K1 cells
T2 sequence (P41968 whole entry): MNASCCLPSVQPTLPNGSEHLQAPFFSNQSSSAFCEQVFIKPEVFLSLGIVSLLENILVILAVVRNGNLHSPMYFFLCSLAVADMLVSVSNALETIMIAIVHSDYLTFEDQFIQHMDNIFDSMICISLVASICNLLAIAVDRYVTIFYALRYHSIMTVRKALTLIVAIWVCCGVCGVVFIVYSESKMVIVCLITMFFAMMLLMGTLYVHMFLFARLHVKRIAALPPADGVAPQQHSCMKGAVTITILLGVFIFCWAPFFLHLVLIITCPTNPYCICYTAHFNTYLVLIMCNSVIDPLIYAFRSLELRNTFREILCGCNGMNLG

Row | Binder | Ki
5 | B1 | 2.08 nM
6 | B2 | 2.59 nM
7 | B3 | 0.732 nM
8 | B4 | 11 nM

Each binder was assayed against T3, human melanocortin receptor subtype 1 (hMC1-R) (human, UniProt Q01726 1-317) (assay: [125I]-NDP-α-MSH competition, membranes).
T3 construct: whole, on cells; membranes of CHO-K1 cells
T3 sequence (Q01726 whole entry): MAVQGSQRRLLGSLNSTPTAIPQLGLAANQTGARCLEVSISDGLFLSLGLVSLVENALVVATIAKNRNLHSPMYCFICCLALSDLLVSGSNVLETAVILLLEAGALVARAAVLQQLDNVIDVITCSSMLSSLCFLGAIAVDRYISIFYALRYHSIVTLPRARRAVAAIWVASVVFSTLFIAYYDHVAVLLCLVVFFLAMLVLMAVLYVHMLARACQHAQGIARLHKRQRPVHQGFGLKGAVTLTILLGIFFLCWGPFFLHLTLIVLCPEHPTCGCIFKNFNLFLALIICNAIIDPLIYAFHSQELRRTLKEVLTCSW

Row | Binder | Ki
9 | B1 | 1.81 nM
10 | B2 | 2.69 nM
11 | B3 | 2.71 nM
12 | B4 | 7.32 nM

Each binder was assayed against T4, human melanocortin receptor subtype 5 (hMC5-R) (human, UniProt P33032 1-325) (assay: [125I]-NDP-α-MSH competition, membranes).
T4 construct: whole, on cells; membranes of CHO-K1 cells
T4 sequence (P33032 whole entry): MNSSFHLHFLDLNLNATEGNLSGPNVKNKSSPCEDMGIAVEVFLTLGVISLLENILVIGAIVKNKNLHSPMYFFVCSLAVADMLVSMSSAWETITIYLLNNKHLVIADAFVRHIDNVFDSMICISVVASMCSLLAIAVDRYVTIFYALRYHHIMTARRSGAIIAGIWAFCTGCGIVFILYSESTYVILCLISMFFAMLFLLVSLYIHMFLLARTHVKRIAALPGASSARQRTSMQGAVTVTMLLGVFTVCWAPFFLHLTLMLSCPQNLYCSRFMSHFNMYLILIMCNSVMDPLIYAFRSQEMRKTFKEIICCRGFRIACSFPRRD

Row | Binder | Ki
13 | B1 | 19.3 nM
14 | B2 | 19.2 nM
15 | B3 | 5.53 nM
16 | B4 | 78 nM
